According to patent US20250034267A1 (published 2025):

T1: CD25 endogenously expressed on SUDHL-1 human lymphoma cell line and induced human Treg (iTreg) (human, UniProt P01589 22-272)
T1 sequence (looked up): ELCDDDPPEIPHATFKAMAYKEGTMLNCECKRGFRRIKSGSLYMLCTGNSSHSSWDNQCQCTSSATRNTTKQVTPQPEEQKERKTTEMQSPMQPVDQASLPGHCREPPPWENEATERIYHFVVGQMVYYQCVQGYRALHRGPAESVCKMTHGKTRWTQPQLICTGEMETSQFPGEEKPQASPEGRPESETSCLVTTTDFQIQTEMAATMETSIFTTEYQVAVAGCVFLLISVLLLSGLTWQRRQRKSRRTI

T2: human IL2R on HEK blue human IL2R overexpressing cell line (human, UniProt P01589 22-272; P14784 27-551; P31785 23-369)
T2 sequence (looked up) 1: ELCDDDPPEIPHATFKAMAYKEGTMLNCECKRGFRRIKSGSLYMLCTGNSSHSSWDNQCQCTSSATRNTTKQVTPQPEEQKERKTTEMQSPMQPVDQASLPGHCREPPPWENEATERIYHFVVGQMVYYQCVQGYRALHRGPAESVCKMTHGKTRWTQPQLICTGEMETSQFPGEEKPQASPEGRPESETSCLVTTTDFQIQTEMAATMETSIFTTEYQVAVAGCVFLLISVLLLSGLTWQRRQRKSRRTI
T2 sequence (looked up) 2: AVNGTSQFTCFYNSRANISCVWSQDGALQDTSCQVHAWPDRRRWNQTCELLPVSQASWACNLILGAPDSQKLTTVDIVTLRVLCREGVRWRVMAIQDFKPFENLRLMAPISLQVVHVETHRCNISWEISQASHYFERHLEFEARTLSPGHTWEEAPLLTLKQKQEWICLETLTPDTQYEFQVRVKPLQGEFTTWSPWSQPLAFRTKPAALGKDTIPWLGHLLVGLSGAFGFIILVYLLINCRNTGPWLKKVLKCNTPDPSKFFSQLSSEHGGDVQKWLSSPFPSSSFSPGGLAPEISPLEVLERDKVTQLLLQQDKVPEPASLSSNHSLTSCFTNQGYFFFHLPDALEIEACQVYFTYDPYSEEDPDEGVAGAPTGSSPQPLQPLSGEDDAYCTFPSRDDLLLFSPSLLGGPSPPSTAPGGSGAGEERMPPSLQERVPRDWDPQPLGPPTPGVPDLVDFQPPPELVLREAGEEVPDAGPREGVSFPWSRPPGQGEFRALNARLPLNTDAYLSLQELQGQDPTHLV
T2 sequence (looked up) 3: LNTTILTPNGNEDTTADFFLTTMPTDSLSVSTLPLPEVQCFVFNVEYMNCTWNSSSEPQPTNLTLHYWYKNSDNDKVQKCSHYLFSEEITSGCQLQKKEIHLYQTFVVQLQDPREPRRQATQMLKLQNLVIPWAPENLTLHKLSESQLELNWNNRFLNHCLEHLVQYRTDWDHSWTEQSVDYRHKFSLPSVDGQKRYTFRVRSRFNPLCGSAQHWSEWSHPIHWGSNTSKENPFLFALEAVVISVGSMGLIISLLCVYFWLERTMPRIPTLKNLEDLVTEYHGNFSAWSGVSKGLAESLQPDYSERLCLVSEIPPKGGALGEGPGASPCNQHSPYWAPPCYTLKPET

T3: human CD25 (Sino Biologicals, 10165-H08H) (human, UniProt P01589 22-213)
T3 construct: Bought recombinant protein coated on ELISA plates; also called immobilized human CD25; IL2RA
T3 sequence (looked up): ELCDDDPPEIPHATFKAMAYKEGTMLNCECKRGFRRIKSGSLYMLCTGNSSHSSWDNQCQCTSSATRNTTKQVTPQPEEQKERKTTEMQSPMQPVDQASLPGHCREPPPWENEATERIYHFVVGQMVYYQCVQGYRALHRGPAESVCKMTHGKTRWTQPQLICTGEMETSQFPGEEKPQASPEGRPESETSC

T4: CD25 (as used on the Carterra LSA) (Homo sapiens (Human), UniProt P01589 22-240)
T4 sequence: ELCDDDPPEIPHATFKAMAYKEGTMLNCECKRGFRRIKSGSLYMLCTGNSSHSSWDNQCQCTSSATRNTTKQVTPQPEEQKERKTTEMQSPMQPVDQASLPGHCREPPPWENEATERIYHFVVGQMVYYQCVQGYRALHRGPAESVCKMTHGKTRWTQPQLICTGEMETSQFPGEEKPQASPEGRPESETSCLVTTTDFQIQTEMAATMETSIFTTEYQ

T5: cynomolgus CD25 (Sino Biologicals, 90265-C08H) (cynomolgus, UniProt H6WS54 22-240)
T5 construct: Bought recombinant protein coated on ELISA plates; also called cynos monkey CD25; immobilized cynomolgus CD25
T5 sequence: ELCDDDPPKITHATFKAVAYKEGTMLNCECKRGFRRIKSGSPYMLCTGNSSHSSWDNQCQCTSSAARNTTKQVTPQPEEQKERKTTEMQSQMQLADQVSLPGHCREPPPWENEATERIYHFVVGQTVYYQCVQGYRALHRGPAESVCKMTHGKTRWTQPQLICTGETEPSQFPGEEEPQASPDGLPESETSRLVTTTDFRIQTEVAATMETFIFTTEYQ

B1: IBIO-101-plant-afuc (SD-889825-PC-A; IBIO-101, c-105 plant Afucosylated) (antibody, human IgG1, kappa, V domains shown)
VH: QVQLVQSGAEVKKPGASLKISCKGSGYTFTDYAMHWVRQAPGQGLEWIGVISTYSGDAIYAQKFQGRATMTVDTSTSTAYLELSSLRSEDTAVYYCARGVTFDYWGQGTTVTVSS
VL: DIQMTQSPSSLSASVGDRVTITCRASQDISNYLEWYQQKPGKAPKLLVYNAKTLAEGVPSRFSGSGSGTDFTLTISSLQPEDFGTYYCQHHYDTPYTFGQGTKLEIKR
notes: Same antibody made in C105 deltaXT/FT N. benthamiana plants, glycans without fucose and xylose; also called RTX-003; hD11
B2: IBIO-101-CHO-WT (SD-889825-CW-A; IBIO-101, wild-type CHO cells) (antibody, human IgG1, kappa, V domains shown)
VH: QVQLVQSGAEVKKPGASLKISCKGSGYTFTDYAMHWVRQAPGQGLEWIGVISTYSGDAIYAQKFQGRATMTVDTSTSTAYLELSSLRSEDTAVYYCARGVTFDYWGQGTTVTVSS
VL: DIQMTQSPSSLSASVGDRVTITCRASQDISNYLEWYQQKPGKAPKLLVYNAKTLAEGVPSRFSGSGSGTDFTLTISSLQPEDFGTYYCQHHYDTPYTFGQGTKLEIKR
notes: The signal peptide is marked only by bold print (lost here); also called RTX-003; hD11
B3: IBIO-101-CHO-afuc (SD-889825-CG-A; IBIO-101, CHO cells Afucosylated) (antibody, human IgG1, kappa, V domains shown)
VH: QVQLVQSGAEVKKPGASLKISCKGSGYTFTDYAMHWVRQAPGQGLEWIGVISTYSGDAIYAQKFQGRATMTVDTSTSTAYLELSSLRSEDTAVYYCARGVTFDYWGQGTTVTVSS
VL: DIQMTQSPSSLSASVGDRVTITCRASQDISNYLEWYQQKPGKAPKLLVYNAKTLAEGVPSRFSGSGSGTDFTLTISSLQPEDFGTYYCQHHYDTPYTFGQGTKLEIKR
notes: Same antibody made in CHO cells, afucosylated glycans; also called RTX-003; hD11
B4: IBIO-101-plant-WT (SD-889825-PW-A; IBIO-101, wild-type plant) (antibody, human IgG1, kappa, V domains shown)
VH: QVQLVQSGAEVKKPGASLKISCKGSGYTFTDYAMHWVRQAPGQGLEWIGVISTYSGDAIYAQKFQGRATMTVDTSTSTAYLELSSLRSEDTAVYYCARGVTFDYWGQGTTVTVSS
VL: DIQMTQSPSSLSASVGDRVTITCRASQDISNYLEWYQQKPGKAPKLLVYNAKTLAEGVPSRFSGSGSGTDFTLTISSLQPEDFGTYYCQHHYDTPYTFGQGTKLEIKR
notes: Same antibody made in wild-type Nicotiana benthamiana plants; also called RTX-003; hD11

Columns and labels:
[1] = target: T1, CD25 endogenously expressed on SUDHL-1 …; assay: cell-based or functional assay
[2] = target: T1, CD25 endogenously expressed on SUDHL-1 …; assay: flow cytometry on SUDHL-1 cells; average of n>=6; SD 38.12
Experimental: SUDHL-1 and iTreg Cell Binding Assay.
(§1) The plates were centrifuged and then kept on ice for the remaining essay steps after aspiration of the supernatant. Following supernatant aspiration, the anti-CD25 or control antibodies in the assay buffer were added to the cells at increasing concentrations (0.64-10,000 ng/ml) for 20 minutes on ice. After incubation, the plates were centrifuged and the supernatant was aspirated, then the cells were washed once with the assay buffer followed by centrifugation and supernatant aspiration. […] After incubation, the plates were centrifuged and the supernatant was aspirated, then the cells were washed once with the assay buffer followed by centrifugation and supernatant aspiration. […] Cell binding was analyzed on a Miltenyi MACSQuant 16 flow cytometer. Flow cytometry data were analyzed with the FlowJo flow cytometry analysis software. For making graphs and calculation of the EC₅₀ values GraphPad Prism 9.3.0 was used.

[3] = target: T2, human IL2R on HEK blue human IL2R …; assay: cell-based or functional assay
[4] = target: T3, human CD25 (Sino Biologicals, …); assay: ELISA, plate coated with human CD25; average of n>=3; SD 3.2
Experimental: (§2) Values plotted are measured absorbance at 450 nm wavelength.
(§3) CD25 Binding ELISA. […] The next day, plates were washed three times with wash buffer [1X PBS with 0.1% Tween-20 (Teknova, P0207)] followed by the addition of blocking buffer [1X PBS, 1% BSA (Teknova, B0101)] for 1 hour at room temperature. After blocking, plates were washed three times with wash buffer followed by the addition of the anti-CD25 or control antibodies in wash buffer at increasing concentrations (0.0006-10 μg/mL) for 1 hour at room temperature. After incubation, plates were washed three times with wash buffer followed by the addition of goat anti-human IgG-HRP secondary antibody (Biorad, STAR126P) at 1:2500 dilution in wash buffer for 1 hour at room temperature. […] After TMB substrate incubation, ELISA stop solution (Thermo Fisher, SS04) was added to the plate at equal volume to the TMB substrate and the absorbance was read at 450 nm. The data was plotted using GraphPad Prism 9.3.0 software and the EC₅₀ values were calculated by the software.

[5] = target: T4, CD25 (as used on the Carterra LSA); assay: Carterra LSA binding kinetics; KD SD 1.27 nM
[6] = target: T4, CD25 (as used on the Carterra LSA); assay: Carterra LSA binding kinetics
[7] = target: T5, cynomolgus CD25 (Sino Biologicals, …); assay: ELISA, plate coated with cynomolgus CD25; average of n>=3; SD 9.8
Experimental: as §2, §3

[8] = target: T1, CD25 endogenously expressed on SUDHL-1 …; assay: cell-based or functional assay; remark: listed apart in the source
[9] = target: T1, CD25 endogenously expressed on SUDHL-1 …; assay: flow cytometry on iTreg cells; average of n=3; SD 83.94
Experimental: as §1

[10] = target: T3, human CD25 (Sino Biologicals, …); assay: ELISA, plate coated with human CD25; average of n>=3; SD 4.9
Experimental: as §2, §3

[11] = target: T1, CD25 endogenously expressed on SUDHL-1 …; assay: flow cytometry on SUDHL-1 cells; average of n>=6; SD 26.2
Experimental: SUDHL-1 and iTreg Cell Binding Assay.
as §1

[12] = target: T4, CD25 (as used on the Carterra LSA); assay: Carterra LSA binding kinetics; KD SD 0.37 nM
[13] = target: T1, CD25 endogenously expressed on SUDHL-1 …; assay: flow cytometry on iTreg cells; average of n=3; SD 44.59
Experimental: as §1

[14] = target: T5, cynomolgus CD25 (Sino Biologicals, …); assay: ELISA, plate coated with cynomolgus CD25; average of n>=3; SD 19.5
Experimental: as §2, §3

[15] = target: T3, human CD25 (Sino Biologicals, …); assay: ELISA, plate coated with human CD25; average of n>=3; SD 2.5
Experimental: as §2, §3

[16] = target: T5, cynomolgus CD25 (Sino Biologicals, …); assay: ELISA, plate coated with cynomolgus CD25; average of n>=3; SD 12.3
Experimental: as §2, §3

[17] = target: T1, CD25 endogenously expressed on SUDHL-1 …; assay: flow cytometry on iTreg cells; average of n=3; SD 40.50
Experimental: as §1

[18] = target: T1, CD25 endogenously expressed on SUDHL-1 …; assay: flow cytometry on SUDHL-1 cells; average of n>=6; SD 39.9
Experimental: SUDHL-1 and iTreg Cell Binding Assay.
as §1

[19] = target: T4, CD25 (as used on the Carterra LSA); assay: Carterra LSA binding kinetics; KD SD 1.03 nM
[20] = target: T1, CD25 endogenously expressed on SUDHL-1 …; assay: flow cytometry on iTreg cells; average of n=3; SD 63.88
Experimental: as §1

[21] = target: T1, CD25 endogenously expressed on SUDHL-1 …; assay: flow cytometry on SUDHL-1 cells; average of n>=6; SD 39.71
Experimental: SUDHL-1 and iTreg Cell Binding Assay.
as §1

[22] = target: T3, human CD25 (Sino Biologicals, …); assay: ELISA, plate coated with human CD25; average of n>=3; SD 3.3
Experimental: as §2, §3

[23] = target: T5, cynomolgus CD25 (Sino Biologicals, …); assay: ELISA, plate coated with cynomolgus CD25; average of n>=3; SD 8.8
Experimental: as §2, §3

[24] = target: T4, CD25 (as used on the Carterra LSA); assay: Carterra LSA binding kinetics; KD SD 0.69 nM

Binder	EC50, SUDHL-1/NFAT CD16 ADCC reporter assay [1] [µg/mL]	EC50, IL-2 reporter HEK293 pSTAT5 assay (activation of STAT5 by IL2 in presence of the antibody) [3] [ng/ml]	koff [6] [s⁻¹]	kon [6] [M⁻¹ s⁻¹]	EC50, iTreg/NFAT CD16 ADCC reporter assay [8] [µg/mL]	further results
B1	0.0089	0.17	0.00207	492000	0.00714	EC50 [2]: 0.123 µg/mL; EC50 [4]: 0.0174 µg/mL; Kd [5]: 4.27 nM; EC50 [7]: 0.0424 µg/mL; EC50 [9]: 0.218 µg/mL
B2	0.0845	0.17	0.00192	471000	0.0538	EC50 [10]: 0.0199 µg/mL; EC50 [11]: 0.123 µg/mL; Kd [12]: 4.1 nM; EC50 [13]: 0.223 µg/mL; EC50 [14]: 0.0544 µg/mL
B3	0.0072	0.17	0.00119	499000	0.00471	EC50 [15]: 0.0156 µg/mL; EC50 [16]: 0.0431 µg/mL; EC50 [17]: 0.219 µg/mL; EC50 [18]: 0.126 µg/mL; Kd [19]: 3.9 nM
B4	0.0325	0.21	0.0012	485000	0.0303	EC50 [20]: 0.235 µg/mL; EC50 [21]: 0.126 µg/mL; EC50 [22]: 0.016 µg/mL; EC50 [23]: 0.0439 µg/mL; Kd [24]: 4.2 nM
